Measured values from a protein production outcome set (Wang et al. 2014).

Experiment: label from the status in PepcDB records

Sequence	protein production
MQASASNSSSYTVNASVLHVRAGSSTSHDIISRVYNGQSLNVIGEENGWYKININGKTGFVSGEFVSKNGTSNSNVSTTGGKNKVTADVLRVRTAPNTSSSVSGRVYEGQTLNVIGQENGWVKINHNGQVGYVSGEFVSGVSSNAGSSNSNTNNNNQESVKPASGNYTVNVSSLRVRTGPSTSHTTVGSVTKGQVVQVVGEVQDWFKINYAGQTAYVSKDYVTKGGSSDNVTQGNNQNNNQNNNVTVQTGGTYVVNATSLRVRTGPATYHSVIGGVLNGTTLNVIGSEGSWFKVNYQGKTGYVSSEFMKFVKGGTTTPEQPKQPEQPNQGAIGDYYINASALNVRSGEGTNYRIIGALPQGQKVQVISENSGWSKINYNGQTGYIGTRYLSKTPVGGAVDNNKPNNNQNNNQNNNNNTGNNSGNSSSILAYAKGMQGVPYVWGGTSANGVDCSGYIYHVFKKFGHNISRQSVAGYWGSLPQTSNPQPGDLIYFQNTYKSGPSHMGIYLGGGSFIQAGDKGVAIASLSNSYWKSHFLGYTKAPLEHHHHHH	not failed
MQAVLNFPDLSPELFSISLFGMEFALRWYALAYIAGIVIAWRLAVLATRRAALWPANTPPMAPARIEDLLTWIILGVILGGRLGFVLFYQPAYYLANPTEILMVWQGGMAFHGGLLGVVIAAWLYSLRHNIPKLSLADLITHTVAPGLLLGRLANFINAELWGRPSDLPWAVIFPGPAAQACPGVVGLCARHPSQLYEAALEGLLLGTLLLWLVWRRGALKRPGLITGVFLAGYGLSRFVVEFFRQPDAQFVTPGNPLGLAWQVGEYGLTMGQLLSLPMIALGLWFVLRARAVPA	failed
MQDERWNHPLYTTTAINDEELEGHAYIPGGLKVQTSSPMNDHPGTNPEQLLGLSLSTCLEATLEAVEKEHGLPHTGAVRVKVAFIGARAEYQFLVHAQVMVKGVDFDTAKAFTNEIENRCPVSKLLKNSGNYTIETVTDFKD	not failed
MQDIFEEIIDYLKGIWLKRRYIIIATWLICPIGWYFVAAMPNVYQSEARVYVDTQSLLRPLLKGLTVETNPDTQIRLMVKTLLSRPNLERISRMTDLDVQASTPAQYEAIIKNLKDNIKISSARRENIYTLSIEDEDPEMAKNIVRSALTVFIENTLGETRSDSDSAQKFLNTQIKDYENRLSNSEARLTSFKQKYSGILPDQSGGYYAKLNGNREKLKAIELDLLENKTRLDSAKKQLAQSVVADTGSDNKIKSENSIQTTYDDRINELEVLLDNLKLRYTEKHPDVIETSRNLEHLNKLRSSEIEKYLAQNNENTGSLKRLSANPVIQEVQIHVNQLENLIASLNVRADNYRQRIIELENRVHTLPEIEAELIALNRGYGITKEKYEELLSRKETAQLAQQADETTDKIQFRVIDPPRKATKPSGPKRFLLFGVVTLIGFAVGIGLSLLMSQLNPVATSTAQLSKITGVPIFGVISANENLGLQQWHKKKTFIFIGSNVLLLCLLVLFVSYFLFPDTIQAPLKRIF	failed
MQDILFDFISTYISLTEDEKNALLSLDLFRSVPKGTILLKEGQKSQESYFVLKGCIRIYYIIDGEEKTTAFYTEMDALTPPCVIHNAPSEYFISCIEDSILTVSNLEMEAEINSKFPKFELMCRMLSEELLAKQQIDFDAFKTSSPEQRYLNVLQNRPDLIQRVPQHQLASFLGIKPQSLSRLRARIVDKKS	not failed
MQDLTSAAAYYHQSMMMTTAKQNQPELPEQEQLKCPRCDSPNTKFCYYNNYNLSQPRHFCKNCRRYWTKGGALRNIPVGGGTRKSNKRSGSSPSSNLKNQTVAEKPDHHGSGSEEKEERVSGQEMNPTRMLYGLPVGDPNGASFSSLLASNMQMGGLVYESGSRWLPGMDLGLGSVRRSDDTWTDLAMNRMEKN	failed
MQDSRPHPHDWNVSTDEAKRIQRRLASEVTERALPDGGETVAGIDVSVRDDTAQAAVSVLRLPELDVVDEATHRCEVPFPYVPGLLSFREMPAVLPALERLHSTPDVFVTDSHGAAHPRRFGLACHLGVLLDAPAIGVAKSILVGAPQGELGPEKGSRVPLVDDGETVGTVLRTRTDVNPVYVSVGHRCTLDGAADLMLDCSPRYKIPEPTRQAHKLSRAEG	failed
